For data set [1], the target named is human legumain, wild type, activated (human) (UniProt Q99538). Kind of data set: SEC; S200 10/300 GL; legumain (0.5 mg/ml) incubated with dimeric hCE 1:1 (1 AEP and 1 hCE dimer) or monomeric hCE 1:2 at pH 5.5 for 10 min on ice; fractions on SDS-PAGE. As to conditions: scale: hCE chains per legumain. (Size exclusion chromatography separates by hydrodynamic size, large species first.)

Data set [2] has the same target. Briefly: enzyme inhibition kinetics (Morrison equation for tight binding inhibitors); 50 mM citric acid pH 5.5, 100 mM NaCl, 0.05% Tween 20; 100 μM Z-AAN-AMC, 0.01 to 5 nM hCE, 2 nM legumain, 37 °C; triplicates.
Data set [3] deals with glycosylated human cystatin E (human) (UniProt Q15828). Kind of data set: SEC; S75 10/300 GL, 20 mM citric acid pH 5.5, 100 mM NaCl; sample incubated 10 min at ≥70 °C (70, 80 or 85 °C), pH 5.5, then chilled on ice; monomer to dimer.
The target of data set [4] is human cystatin E, full-length wild type, monomeric (human) (UniProt Q15828). Briefly: SEC; S75 10/300 GL; WT cystatin E incubated at 60 °C in citric acid buffer at pH 3.0 before injection; monomer to dimer.
Data set [5] shares this target. Briefly: SEC; S75 10/300 GL, 20 mM citric acid pH 5.5, 100 mM NaCl; sample incubated 10 min at ≥70 °C (70, 80 or 85 °C), pH 5.5, then chilled on ice; monomer to dimer.
Data set [6] has the same target. Briefly: thioflavin T fluorescence; fibril formation after 10 min at 80 °C, 10 mg/ml, 50 mM citric acid, 100 mM NaCl (pH 3–6) or 50 mM Tris, 100 mM NaCl (pH 7.0); ThT fluorescence at 482 nm.
Data set [7] concerns the molecule itself. Briefly: SEC; S75 10/300 GL, 20 mM citric acid pH 5.5, 100 mM NaCl, 250 μl sample; no destabilising heat (ΔhCE kept at 4 °C and 37 °C before injection); oligomerisation state.
Data set [8] deals with the molecule itself. Briefly: SEC; S75 10/300 GL, 20 mM citric acid pH 5.5, 100 mM NaCl; sample incubated 10 min at ≥70 °C (70, 80 or 85 °C), pH 5.5, then chilled on ice; monomer to dimer.

Consider five molecules from paper PMC6109925, “Structural and functional analysis of cystatin E reveals enzymologically relevant dimer and amyloid fibril states” (The Journal of Biological Chemistry, 2018).

Chain of human legumain, wild type, activated (human) (Q99538 18-323): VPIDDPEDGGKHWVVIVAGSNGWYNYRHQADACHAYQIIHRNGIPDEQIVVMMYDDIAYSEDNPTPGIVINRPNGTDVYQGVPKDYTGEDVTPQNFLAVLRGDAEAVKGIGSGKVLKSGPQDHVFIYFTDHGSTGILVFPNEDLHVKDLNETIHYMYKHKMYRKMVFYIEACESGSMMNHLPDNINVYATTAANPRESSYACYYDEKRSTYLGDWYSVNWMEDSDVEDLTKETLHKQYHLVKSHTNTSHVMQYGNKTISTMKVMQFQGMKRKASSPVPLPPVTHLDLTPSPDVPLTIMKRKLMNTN

In data set [1], “dimeric human cystatin E (domain-swapped dimer) (from UniProt Q15828 29-149) (complex)” returned a stoichiometry N of 2. The Ki in data set [2] is 0.0135 nM.
In data set [3], “glycosylated human cystatin E (from UniProt Q15828 29-149) (natural protein)” displayed a stoichiometry N of 2.
In data set [4], “human cystatin E, full-length wild type, monomeric (from UniProt Q15828 29-149) (natural protein)” showed a stoichiometry N of 2. Besides, in data set [5], the percent converted to the dimer at 70 °C was > 90% and the stoichiometry N was 2. Moreover, the fold increase in ThT signal after incubation at pH 3.0 in data set [6] came out at 4 fold. Further, the Ki in data set [2] came to 0.0107 nM.

B1: N-terminally truncated human cystatin E, Δ(Arg4–Leu13)hCE (domain or fragment)
chain: MELSPDDPQVQKAAQAAVASYNMGSNSIYYFRDTHIIKAQSQLVAGIKYFLTMEMGSTDCRKTRVTGDHVDLTTCPLAAGAQQEKLRCDFEVLVVPWQNSSQLLKHNCVQM
For B1, in data set [7], the “stoichiometry N” value stood at 2.

B2: human cystatin C, wild type (natural protein, UniProt P01034 27-146, looked up)
chain: SSPGKPPRLVGGPMDASVEEEGVRRALDFAVGEYNKASNDMYHSRALQVVRARKQIVAGVNYFLDVELGRTTCTKTQPNLDNCPFHDQPHLKRKAFCSFQIYAVPWQGTMTLSKSTCQDA
notes: N terminus Ser1 after removal of the pelB leader. numbers count on: the mature protein; Called 'untagged hCC' in the pull-down (it has no Strep-tag), while the methods give a C-terminal His6 tag for the expression constructs; also called hCC; WT cystatin C; source: E. coli Bl21(DE3), periplasm (pelB leader), purified (nickel-nitrilotriacetic acid resin, SEC)
Regarding B2, in data set [8], the “stoichiometry N” value turned out to be 2.

The term stoichiometry N denotes a count of units in the complex or per binding partner. By Ki is commonly meant a measure of affinity in units of concentration, obtained from inhibition or displacement.
